According to patent US20190352375A1:

These substances were tested against Hemagglutinin of AIV A/duck/It/775/04(H5N3) (Influenza A virus A/duck/Italy/775/2004(H5N3)) (assay: cell-based or functional assay).

Row | Substance | HI titer
1 | mAb 9 (Pierce/Thermo Sci., Cat. No. MA1-81928) (antibody) | 7.8 µg/mL
2 | mAb 7: Monoclonal Antibody to Influenza A (Hemagglutinin H5) H5N1 - Purified, Acris Antibodies AM00945PU-N | 2 µg/mL
3 | mAb 8: Monoclonal Antibody to Influenza A (Hemagglutinin H5) H5N1 - Purified, Acris Antibodies AM00941PU-N | 1 µg/mL
